# Reference: publication doi:10.1101/2024.04.27.591446 (bioRxiv, 2024)
# B1: 1301B7 recombinant human monoclonal antibody (hmAb), IgG1 (antibody, V domains shown)
# VH: EVQLVESGAEVKNPGSSVKVSCKASEGTFGSYPIIWVRQAPGQGLEWVGGIIPILGTVIYAQKFQGRVTITGDTYAGSAHMELSGLRSEDTAVFYCARGSYDYGDRLLNYTYYAMDVWGPGTTVTVSS
# VL: QPGLTQPPSVSGAPGQRVTISCTGSRSNIGAVYAVHWYQHVPGAAPKLLIYENNNRPSGIPDRFSGSKSGTSASLVITGLQAEDEADYLCQSYDRSVGVVFGGGTRLTVL
# Assays:
# SARS-CoV1 Spike = SARS-CoV1 Spike (SARS-CoV, strain  (P59594 …, UniProt P59594)); assay: ELISA
# SARS-CoV-2 RBD WU1 = SARS-CoV-2 RBD WU1 (SARS-CoV-2 Wuhan-Hu-1, UniProt P0DTC2); assay: SPR
binder,measurement,setting,value
B1,binding result,SARS-CoV1 Spike,binds
same,binding result,SARS-CoV-2 RBD WU1,binds
